Biological target: TrkA receptor (tropomyosin receptor kinase A) on NIH3T3-TrkA cells (UniProt P04629 33-796)
Sequence (P04629 33-796): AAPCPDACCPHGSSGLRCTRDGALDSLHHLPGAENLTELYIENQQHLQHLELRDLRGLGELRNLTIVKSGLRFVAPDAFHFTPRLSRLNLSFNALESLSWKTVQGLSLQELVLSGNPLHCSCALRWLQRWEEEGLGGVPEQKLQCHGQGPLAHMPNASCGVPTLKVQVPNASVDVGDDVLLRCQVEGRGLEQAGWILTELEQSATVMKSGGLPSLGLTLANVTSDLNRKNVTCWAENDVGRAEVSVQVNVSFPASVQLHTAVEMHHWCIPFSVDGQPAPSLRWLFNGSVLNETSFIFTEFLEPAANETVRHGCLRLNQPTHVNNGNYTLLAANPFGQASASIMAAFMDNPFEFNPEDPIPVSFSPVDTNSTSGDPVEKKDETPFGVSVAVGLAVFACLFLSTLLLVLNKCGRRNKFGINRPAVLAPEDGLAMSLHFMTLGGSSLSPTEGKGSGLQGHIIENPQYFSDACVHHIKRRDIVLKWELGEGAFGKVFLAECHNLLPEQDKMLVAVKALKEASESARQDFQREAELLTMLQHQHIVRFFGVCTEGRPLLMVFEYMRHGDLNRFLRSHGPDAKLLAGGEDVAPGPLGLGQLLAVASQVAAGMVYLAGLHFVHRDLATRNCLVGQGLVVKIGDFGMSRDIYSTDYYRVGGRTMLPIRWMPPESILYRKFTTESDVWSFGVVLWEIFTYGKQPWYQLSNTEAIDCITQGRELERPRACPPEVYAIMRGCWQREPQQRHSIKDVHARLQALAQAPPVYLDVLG

Kd | Binder
2.79 nM | NGF^R100W, mature form of the HSAN V mutant nerve growth factor, monobiotinylated, with AviTag (ligand, biotin on the AviTag (BirA co-expressed); conjugated to streptavidin-QD655 for the assays on cells) SSTHPVFHMGEFSVCDSVSVWVGDKTTATDIKGKEVTVLAEVNINNSVFRQYFFETKCRASNPVESGCRGIDSKHWNSYCTTTHTFVKALTTDEKQAAWWFIRIDTACVCVLSRKATRRGGGGLNDIFEAQKIEWHE
2.27 nM | wildtype nerve growth factor (wtNGF), monobiotinylated, with AviTag (ligand, mouse, UniProt P01139 122-241, looked up, biotin on the AviTag (BirA co-expressed); conjugated to streptavidin-QD655 for the assays on cells) SSTHPVFHMGEFSVCDSVSVWVGDKTTATDIKGKEVTVLAEVNINNSVFRQYFFETKCRASNPVESGCRGIDSKHWNSYCTTTHTFVKALTTDEKQAAWRFIRIDTACVCVLSRKATRRG
